Changes are numbered by the printed parent chain. Where two headings read alike, the source gives them in different places. Oligonucleotides are written 5' to 3', each unit as a sugar letter and its base; * is a phosphorothioate linkage, no mark a phosphodiester; rarer units and linkages stand in square brackets, end groups in braces. Plain capitals give the bases only. [invdT] = inverted (3'-3') thymidine; d = 2'-deoxy (DNA); m = 2'-O-methyl
B1: AMX238.E9: DNA SELEX 2 aptamer clone (nucleic acid)
DNA: CTACCTACGATCTGACTAGCGTGCAGTGCCCATCTTAGGCCGTGCGGTGCCTCCGTCACGCTTACTCTCATGTAGTTCC
modifications: DNA, backbone not given here
notes: DNA SELEX 2 aptamer clone
B2: AMX238.H5: DNA SELEX 2 aptamer clone (nucleic acid)
DNA: B1 DNA with C31T, C34T, T35C
modifications: DNA, backbone not given here
notes: DNA SELEX 2 aptamer clone
B3: Reopro: IIbIIIa antagonist (antibody, chains of the INN, looked up, V domains shown)
VH: EVQLQQSGTVLARPGASVKMSCEASGYTFTNYWMHWVKQRPGQGLEWIGAIYPGNSDTSYIQKFKGKAKLTAVTSTTSVYMELSSLTNEDSAVYYCTLYDGYYVFAYWGQGTLVTVSA
VL: EIVLTQSPVTLSVTPGDSVSLSCRASRDISNNLHWFQQTSHESPRLLIKYASQSMSGIPSRFSGSGSGTDFTLSINSVETEDFGMYFCQQTNSWPYTFGGGTKLEIK
modifications: Fab
notes: IIbIIIa antagonist

How the values were obtained:
[1] = system: full length human vWF binding to lyophilized platelets; assay: Full length human von Willebrand Factor platelet binding assay (FACS); type: cell-based; conditions: 5 nM full length human vWF, lyophilized platelets, botrocetin
Procedure, shortened: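 Aptamer titrations (0.1–1000 nM) pre-incubated with 5 nM full-length human vWF, then added to lyophilized platelets plus botrocetin for 15 min at 37 °C in PBS/0.5% BSA. Bound vWF detected by anti-vWF then FITC secondary antibody via flow cytometry MFI; % inhibition versus no-aptamer binding fitted for IC50.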

vWF = vWF (Homo sapiens, UniProt P04275, D1472H/Q852R/T1381A); assay: cellular / biological vWF dependent assays of Example 3, not specified further; type: cell-based; conditions: in words; FACS, BIPA (and PFA-100) assays of Example 3
Description: The effectiveness of various aptamers in blocking vWF function in several biological assays is described in this Example.
In one assay botrocetin is used. Botrocetin, a protein isolated from snake venom, is known to induce von Willebrand Factor binding to the gpib receptor on live and fixed platelets. This reaction causes agglutination of suspensions of fixed platelets via vWF multimerization. In preparations of platelet rich plasma (hereinafter “PRP”), vWF/botrocetin induction of agglutination is followed by a second phase of platelet aggregation caused by metabolic activation of the platelets. These two reactions: vWF binding to fixed platelets and vWF mediated platelet aggregation, can be used to measure the activity of aptamers of the invention.

[2] = pharmacokinetics after 3 mg/kg IV in cynomolgus macaques (Oligreen, HPLC); type: in vivo; conditions: cynomolgus monkey, in vivo, iv, 3 mg/kg
Description: ARC1368 (SEQ ID NO 291), 1779 (SEQ ID NO 320) and 1780 (SEQ ID NO 321) (as described in Example 2 above) were injected intravenously into cynomolgus macaques (n=3/group) at a dosage of 3 mg/kg which was expected to yield an instantaneous plasma concentration of 3 uM, approximately 30-fold higher than the putative effective dose. Subsequently, citrated blood samples were collected at regular intervals and processed for plasma.
Subsequently, plasma aptamer concentrations were determined using the Oligreen assay (Gray et al., Antisense and Nucleic Acid Drug Development 7 (3):133-140 (1997). The data were subsequently analyzed using the program WinNonlin to yield the pharmacokinetic parameters listed in Tables 29 to 31 below.
Following the Oligreen assay analysis, plasma aptamer concentrations were determined for the animals dosed with ARC1779 (SEQ ID NO 320) using a validated HPLC-based assay. The HPLC data were analyzed via noncompartmental and 2-compartment analysis using the program WinNonlin.

[3] = system: botrocetin induced platelet aggregation; assay: Inhibition of botrocetin induced platelet aggregation (BIPA) in human PRP; type: cell-based; conditions: human platelet rich plasma
Description: In platelet rich plasma isolated from fresh human blood, botrocetin induces platelet aggregation via vWF. Platelet aggregate formation can be measured optically as an increase in % light transmittance on a Chronolog Model 490-4D Aggregometer because aggregation of platelets clarifies the plasma. Aptamers of the invention were analyzed for their ability to inhibit botrocetin induced platelet aggregation (“BIPA”) in human blood. An aptamer of the invention was considered to be active if it could prevent aggregate formation for six minutes post botrocetin addition.
In order to determine the activity of aptamers on live human platelets, BIPA assays were done using freshly prepared platelet rich plasma. Blood was obtained from healthy human donors who had not taken NSAIDS for at least five days. […] Collected blood was pooled into 15 mL conical tubes and was spun at 200 g for 20 minutes. The turbid, yellow layer of platelet rich plasma (“PRP”) was withdrawn from the tubes, pooled, and set aside at room temperature. The remaining blood was spun at 2500 g for ten minutes. The clarified layer of plasma, known as platelet poor plasma (“PPP”), was withdrawn and set aside at room temperature. PRP was aliquoted into cuvettes containing stir bars at a volume of 470 uL. A sample of 500 uL of PPP was aliquoted into a cuvette and placed in the PPP reference cell of the platelet aggregometer. Samples of PRP were prewarmed at 37 degrees C. in the platelet aggregometer for 3-5 minutes before being used in BIPA assays. First, the concentration of botrocetin needed to induce platelet aggregation for each individual donor was determined by titration. This concentration of botrocetin was used for the remainder of the experiment. Next, aptamer was assayed by adding titrations of aptamer (zero, 1 nM to 1000 nM) to prewarmed PRP for one minute, followed by addition of botrocetin. With platelet aggregation, an increase in amplitude of light transmission is seen (FIG. 8). The concentration at which platelet aggregation is blocked at 90% or greater after 6 minutes is reported in the final column of Table 26.

[4] = system: vWF dependent platelet plug formation, human whole blood; assay: PFA-100 assay, human whole blood; type: cell-based; conditions: citrated human whole blood; minimum concentration that extends closing time to 300 seconds
Description: Another assay of this Example, using the PFA-100 instrument, is an agonist independent but vWF dependent assay that uses the PFA-100 instrument (Harrison et al., Clin. Lab. Haem., v24, p 225-32 (2002)). The PFA-100 simulates the formation of a hemostatic plug under conditions of high shear force in vivo by recording the time required for a platelets to aggregate and block the flow of citrated whole blood through a microscopic aperture in a membrane coated with collagen and either epinephrine or ADP. This activity is von Willebrand factor dependent as high MW vWF multimers bind to immobilized collagen on the membrane and then bind to and activate platelets because of the shear force induced by drawing the blood through the microscopic aperture.
Fresh whole blood was collected from healthy non-steroidal anti-inflammatory drug (NSAID) free cynomolgus macaques. Aptamers were diluted with physiological saline from Aldon (Cat#9420306) in no-additive vacutainer tubes (Cat#366434, Becton Dickenson). Samples were loaded onto collagen/epinephrine test cartridges (Cat#B4170-20A, Dade Behring) which were used in the PFA-100 machine (Dade Behring). Trigger solution (Cat#B4170-50, Dade Behring) was used in the self-test and to pre-wet the test cartridges. O-ring cleaning pads (Cat#B4170-73, Dade Behring) were used in the self-test and in the O-ring cleaning process.
A self-test, which included an O-ring cleaning process, was always run on the PFA-100 machine before running any samples to ensure proper function of the machine.
During the entire experiment, the tubes of whole blood were gently inverted every five minutes to prevent settling.
In order to assay the titration of aptamer in whole blood, the aptamer was added to no-additive vacutainer tubes and diluted to the desired concentrations (ex: 0 nM, 1 nM to 1000 nM) using physiological saline such that the final volume was […]. When the PFA-100 was ready to run the next set of samples, 1940 μl of whole blood was added to the tube containing a concentration of aptamer. This tube was gently inverted three times to thoroughly mix the aptamer and blood. Samples were always run in duplicate on the PFA-100 machine. 800 μl of this blood mixture was loaded into the collagen/epinephrine test cartridges. The test cartridges were loaded onto the PFA-100 machine. The time of occlusion of the aperture was measured by the PFA-100, with a maximal time of 300 seconds. We estimate the IC95 in this assay to be the minimum concentration of aptamer that extends the closing time to 300 seconds.

[5] = system: full length human vWF (SEQ ID NO 7); assay: dot blot KD determination and extent of binding, full length human vWF; conditions: dot blot; for Kd: 12 point protein titration, 1xDPBS plus 0.1 mg/mL BSA, room temperature, 30 minutes, read-out: full length human vWF KD;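 as to all read-outs here: dot blot binding of aptamers to full length human vWF across a protein titration, incubated 30 minutes at room temperature in 1x DPBS with BSA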
[6] = system: rabbit vWF A1 domain (SEQ ID NO 6); assay: dot blot KD determination, rabbit vWF A1 domain; type: binding; conditions: dot blot, 12 point protein titration, 1xDPBS plus 0.1 mg/mL BSA, room temperature, 30 minutes
Description: A 12 point protein titration was used in the dot blot assay (300 nM, 100 nM, 30 nM, 10 nM, 3 nM, 1 nM, 300 pM, 100 pM, 30 pM, 10 pM, 3 pM, 0 pM) in 1×DPBS plus 0.1 mg/mL BSA at room temperature for 30 minutes.

full length human vWF = assay: 3-point dot blot screen, full length human vWF; type: binding; conditions: 20 nM full length human vWF, ratio of fraction of aptamer bound with target protein to fraction bound without protein
Procedure, shortened: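 Unique aptamer clones tested twice by nitrocellulose dot blot with no protein, 20 nM full-length human vWF or 20 nM rabbit vWF A1 domain. Value is fraction of aptamer bound with target divided by fraction bound without protein.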

[7] = system: rabbit vWF A1 domain (SEQ ID NO 6); assay: 3-point dot blot screen, rabbit vWF A1 domain; type: binding; conditions: 3-point dot blot screen, 20 nM rabbit vWF A1 domain; ratio of fraction of aptamer bound with target protein to fraction bound without protein
Procedure, shortened: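 Rabbit vWF A1 domain binding was screened by dot blot using three conditions: no target protein, human vWF, and rabbit vWF A1 domain at 100 nM (20 nM in the screen run twice). Radiolabeled aptamer bound to nitrocellulose was quantified, and results are expressed as the ratio of bound fraction with protein to bound fraction without protein.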

[8] = system: intra-arterial thrombosis of carotid arteries; assay: cynomolgus macaque electrolytic thrombosis model; type: in vivo, cynomolgus monkeys; conditions: animals treated with Reopro
Description: A study was performed to test the efficacy of ARC1779 (SEQ ID NO 320) in inhibiting intra-arterial thrombosis in a well documented non-human primate electrolytic thrombosis model. See, e.g., Rote et al., Stroke, 1994: 25, 1223-1233.
Each animal was anesthetized prior to surgical preparation, intubated and maintained in anesthesia with isoflurane inhalant anesthetic to effect delivered through a volume-regulated respirator. An intravenous catheter was also placed in a peripheral vein for administration of lactated Ringer's solution during the procedure.
A catheter was placed in the femoral artery of each animal for continuous monitoring of arterial blood pressure. Similarly a catheter was placed in the femoral vein for blood sample collection. Each carotid artery was instrumented with a Doppler flow probe connected to a flow meter. The flow probes were placed around the artery at a point proximal to the insertion of the intra-arterial electrode and stenosis. The stenosis was placed around each carotid artery so that the […] was reduced by approximately 50% to 60% without altering the mean […]. Blood flow in the carotid arteries was monitored and recorded continuously throughout the observation periods.
Electrolytic injury to the intimal surface of each carotid artery was accomplished via placement of an intravascular electrode. Each electrode was connected to the positive pole of a constant current device and cathode connected to a distant subcutaneous site. Continuous current was delivered to each vessel for a period of 3 hours or for 30 minutes after complete occlusion, whichever was shorter.
Once the electrodes were placed on the right carotid artery (“RCA”) the animal was administered the test article as indicated in Table 32 above. Approximately 15 minutes after test article administration, the electrical current was applied at 100 μA. Blood samples and CBT measurements were collected at the time points specified in Blood Sample Collection Schedule as indicated in FIG. 31. The current was terminated ˜30 minutes after the blood flow signal remained stable at zero flow (which indicates an occlusive thrombus had been formed at the site) or after 180 minutes of electrical stimulation. Approximately 195 minutes after the test article was administered, the left carotid artery (“LCA”) had electrical current administered in a similar fashion as previously described for the RCA. After termination of all surgical procedures and sample collection each animal was euthanized.
An additional 10 cynomolgus monkeys (2.5 to 3.5 kg) were divided into treatment groups 5 to 7 and were treated according the regimen indicated in Table 33 below.
The animal procedure for each treatment group in Table 33 was conducted as reported for the animals in Example 5B.

[9] = read-out: Inhibition of full length hVWF binding in FACS assay, Average IC50

vWF, sequence (P04275 764-2813 Q852R/T1381A/D1472H): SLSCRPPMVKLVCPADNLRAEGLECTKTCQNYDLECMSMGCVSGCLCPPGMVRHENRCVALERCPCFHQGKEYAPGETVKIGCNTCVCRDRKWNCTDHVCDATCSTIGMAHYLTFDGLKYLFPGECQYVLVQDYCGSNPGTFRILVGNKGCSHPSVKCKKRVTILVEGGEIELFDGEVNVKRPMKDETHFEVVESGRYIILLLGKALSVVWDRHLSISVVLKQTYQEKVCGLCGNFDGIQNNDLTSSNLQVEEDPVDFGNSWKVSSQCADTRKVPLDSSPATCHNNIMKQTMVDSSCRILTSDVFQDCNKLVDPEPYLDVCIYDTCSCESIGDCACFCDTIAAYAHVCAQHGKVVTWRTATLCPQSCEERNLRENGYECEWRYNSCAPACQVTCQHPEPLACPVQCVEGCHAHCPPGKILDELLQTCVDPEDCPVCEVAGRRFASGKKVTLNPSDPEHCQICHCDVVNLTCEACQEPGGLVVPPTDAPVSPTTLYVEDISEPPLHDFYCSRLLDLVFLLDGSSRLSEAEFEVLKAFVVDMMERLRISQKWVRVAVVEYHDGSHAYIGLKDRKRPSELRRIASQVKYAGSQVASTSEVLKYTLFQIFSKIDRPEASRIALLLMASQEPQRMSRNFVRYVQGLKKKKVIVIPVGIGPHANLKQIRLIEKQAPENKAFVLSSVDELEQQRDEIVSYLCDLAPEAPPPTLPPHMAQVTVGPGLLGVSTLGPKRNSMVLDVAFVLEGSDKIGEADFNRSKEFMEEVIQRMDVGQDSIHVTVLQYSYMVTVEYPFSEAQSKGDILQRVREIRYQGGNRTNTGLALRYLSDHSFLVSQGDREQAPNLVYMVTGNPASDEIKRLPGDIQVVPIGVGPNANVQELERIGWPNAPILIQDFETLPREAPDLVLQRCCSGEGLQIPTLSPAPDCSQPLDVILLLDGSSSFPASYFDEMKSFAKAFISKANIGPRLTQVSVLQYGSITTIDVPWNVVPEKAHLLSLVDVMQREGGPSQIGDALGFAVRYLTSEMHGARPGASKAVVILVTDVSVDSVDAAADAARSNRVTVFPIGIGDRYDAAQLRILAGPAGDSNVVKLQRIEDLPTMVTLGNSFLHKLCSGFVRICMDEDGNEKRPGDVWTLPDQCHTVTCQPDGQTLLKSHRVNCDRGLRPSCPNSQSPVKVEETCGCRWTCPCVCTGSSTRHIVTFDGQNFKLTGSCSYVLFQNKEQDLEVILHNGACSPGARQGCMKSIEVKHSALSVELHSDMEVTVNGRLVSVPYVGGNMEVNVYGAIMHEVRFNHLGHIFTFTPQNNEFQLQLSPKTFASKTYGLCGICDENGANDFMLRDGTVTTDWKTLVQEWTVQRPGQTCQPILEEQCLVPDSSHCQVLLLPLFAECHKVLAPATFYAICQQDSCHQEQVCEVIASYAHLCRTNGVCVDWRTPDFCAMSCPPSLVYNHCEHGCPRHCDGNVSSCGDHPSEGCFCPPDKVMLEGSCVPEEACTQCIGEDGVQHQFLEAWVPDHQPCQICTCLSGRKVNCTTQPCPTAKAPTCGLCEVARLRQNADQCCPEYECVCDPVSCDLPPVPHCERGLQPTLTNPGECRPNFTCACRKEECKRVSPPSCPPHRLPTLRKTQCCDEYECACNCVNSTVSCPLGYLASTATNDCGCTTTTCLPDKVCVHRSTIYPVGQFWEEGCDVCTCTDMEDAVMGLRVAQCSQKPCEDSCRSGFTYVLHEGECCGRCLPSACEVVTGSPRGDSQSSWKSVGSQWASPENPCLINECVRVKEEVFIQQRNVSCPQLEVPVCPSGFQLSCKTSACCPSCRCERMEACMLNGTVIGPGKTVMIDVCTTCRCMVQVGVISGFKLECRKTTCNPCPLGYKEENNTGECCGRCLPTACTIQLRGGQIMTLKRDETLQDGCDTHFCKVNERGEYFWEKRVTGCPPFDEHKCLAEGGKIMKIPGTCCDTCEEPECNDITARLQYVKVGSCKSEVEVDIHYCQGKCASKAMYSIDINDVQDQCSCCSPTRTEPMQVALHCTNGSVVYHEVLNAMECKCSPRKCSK
rabbit vWF A1 domain (SEQ ID NO 6), sequence (as listed by the source): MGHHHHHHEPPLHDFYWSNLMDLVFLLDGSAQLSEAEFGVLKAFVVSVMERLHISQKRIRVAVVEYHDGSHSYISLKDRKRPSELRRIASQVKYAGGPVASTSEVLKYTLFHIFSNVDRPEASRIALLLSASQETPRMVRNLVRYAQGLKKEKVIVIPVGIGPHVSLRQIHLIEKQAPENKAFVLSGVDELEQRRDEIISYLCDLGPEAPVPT

| Molecule | IC50 [1, 9] | activity in the cellular / biological assays (vWF) | Kd [5] | Kd [6] | Screen- Human/No Protein (full length human vWF) | Screen Rabbit/No Protein [7] | other results |
| --- | --- | --- | --- | --- | --- | --- | --- |
| GGACGATCTGACTAGCTCCAGTGTTTTATCTAATAACCGTCC (DNA, backbone not given here) [SEQ ID NO 208, minimized DNA aptamer] | 4300 pM | demonstrated activity |  |  |  |  |  |
| PEG40K-NH2-mGmCmGmUdGdCdAmGmUmGmCmCmUmUmCmGmGmCdCmG-s-TmGdCdGdGTmGmCdCmUdCdCmGmUdCmAmCmGmC-3T [ARC1780] |  |  |  |  |  |  | AUCall, Mean [2]: 751.065 µg·h/mL; AUClast, Mean [2]: 751.065 µg·h/mL; MRTlast, Mean [2]: 10.78 h; distribution phase [2]: prolonged distribution phase; pharmacokinetic profile [2]: mainly monophasic; IC90 [3]: ~100 nM; ~IC95 PFA-100 (nM) with citrated human whole blood [4]: ~100 nM |
| mGmCmGmUdGdCdAmGmUmGmCmCmUmUmCmGmGmCdCmGmTmGdCdGdGTmGmCdCmUdCdCmGmUmCmAmCmGmC-3T (mGmCmGmUdGdCdAmGmUmGmCmCmUmUmCmGmGmCdCmGmTmGdCdGdGdTmGmCdCmUdCdCmGmUmCmAmCmGmC[invdT]) [ARC1525] |  | did not display activity |  |  |  |  | binding to human vWF ([5]; in words): no binding at all |
| B1 | 3400 pM | slightly more potent | 0.39 nM | 5.3 nM | 3.44 | 3.36 | IC50 ([1]; units in the cell: lower bound pM, upper bound nM, read-out: Inhibition of full length hVWF binding in FACS assay, IC50 range): 772 to 6500 pM |
| B2 | 658 pM | slightly more potent | 0.33 nM | 6 nM | 3.75 | 3.46 |  |
| B3 |  |  |  |  |  |  | arteries that developed occlusive thrombi [8]: 20% |

From patent publication US7998940B2, “Aptamers to von Willebrand factor and their use as thrombotic disease therapeutics” (Archemix Corp., priority 2004, dated 2011)
